Results taken from patent US20230212239A1, “INHIBITORS OF CBL AUTOINHIBITION AND RELATED METHODS” (THE HOSPITAL FOR SICK CHILDREN, priority 2020, published 2023).

T1: CBL TKBD (Homo sapiens, UniProt P22681)
T1 construct: with CBL (47-357) cloned in frame into MCS2 of the same pETDuet-1 vector; made in house
T1 sequence (P22681 47-357): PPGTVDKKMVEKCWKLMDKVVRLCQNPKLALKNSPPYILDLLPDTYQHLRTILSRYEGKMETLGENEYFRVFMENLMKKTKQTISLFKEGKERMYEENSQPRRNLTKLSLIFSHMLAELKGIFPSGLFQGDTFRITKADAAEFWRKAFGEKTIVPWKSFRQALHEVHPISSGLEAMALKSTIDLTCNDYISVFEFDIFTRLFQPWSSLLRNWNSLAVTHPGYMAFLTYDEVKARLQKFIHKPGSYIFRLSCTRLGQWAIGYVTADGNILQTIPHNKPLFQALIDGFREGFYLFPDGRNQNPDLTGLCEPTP

T2: phosphorylated CBL (pCBL) (Homo sapiens, UniProt P22681)
T2 construct: GST (N, cleaved yes); made in house
T2 sequence (P22681 2-436): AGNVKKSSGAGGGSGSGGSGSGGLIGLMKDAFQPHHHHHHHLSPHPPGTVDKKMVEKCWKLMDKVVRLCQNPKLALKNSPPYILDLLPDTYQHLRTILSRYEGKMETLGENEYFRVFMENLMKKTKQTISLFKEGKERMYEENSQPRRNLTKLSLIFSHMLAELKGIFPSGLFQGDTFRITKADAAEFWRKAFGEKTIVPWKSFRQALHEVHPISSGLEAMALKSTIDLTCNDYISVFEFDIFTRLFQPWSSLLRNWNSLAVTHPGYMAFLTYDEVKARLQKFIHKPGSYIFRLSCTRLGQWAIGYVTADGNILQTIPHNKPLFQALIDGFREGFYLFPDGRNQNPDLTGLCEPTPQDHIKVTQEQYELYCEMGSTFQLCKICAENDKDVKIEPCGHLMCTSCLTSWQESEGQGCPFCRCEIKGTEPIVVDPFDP


What was measured:
CBL TKBD = target: T1, CBL TKBD; assay: Co-purification of CBL TKBD with Trx-His-SLAP2/SLAP (Duet co-expression, Ni-NTA, SDS-PAGE); format: binding
From the text: To validate the CBL/SLAP2 binding interface, a series of mutants in a Duet co-expression vector system was generated for co-purification trials. The SLAP2 sequence was preceded by thioredoxin (Trx) and His-tag fusion proteins to allow co-purification of CBL TKBD that was bound to Trx-His-SLAP2 during the initial affinity chromatography purification step. Surface residues deemed to be important to the CBL/SLAP2 interface, but not CBL function or folding, were mutated to disrupt CBL/SLAP2 binding (FIG. 5C and FIG. 6). In our structure, SLAP2 Gly240 locates close to CBL Met269 and Ala270, such that mutation to a bulky Arg residue (G240R) could cause sterical constraints. Similarly, SLAP2 Leu241 is situated in a hydrophobic cleft composed of CBL Ala223, Trp258, and Val263; mutation to Arg (L241R) was predicted to disturb this binding pocket. Mutation of CBL Ala223 to Arg (A223R) would likewise disrupt this pocket, with CBL/SLAP2 double mutant A223R/L241R predicted to drastically disturb binding through sterical constraints and charge repulsion. (For clarity, CBL mutations herein are indicated in italics, SLAP2 in regular font.) Similarly, single or double mutation of CBL Ser226 or SLAP2 Ser244, whose side chain hydroxyl groups are in close proximity to one another, to charged Glu residues (S226E and S244E) was anticipated to interfere with CBL/SLAP2 binding. Finally, given that SLAP2 binds CBL as an α-helix, mutation of Leu245, located in the center of this α-helix, to proline (L245P) was expected to interrupt the helical structure and thus prevent SLAP2 binding. […] However, double mutation of the CBL/SLAP2 interface (A223R/L241R and S226E/S244E; FIG. 5D, lower panel) was not tolerated, even at low salt concentration.
For co-purification of CBL and SLAP2/SLAP, Duet-His-hSLAP2-CBL 29-261 Δ198-229 and 29-254 Δ198-229, Duet-His-Δlinker-hSLAP2-CBL WT and point mutants, and Duet-His-mSLAP-CBL WT and point mutants were overexpressed in E. coli BL-21 as above or TKB1 competent cells (Stratagene) as per manufacturer’s instructions, and cells harvested as above (except 100 mL of LB, overnight at 16-18° C., and 0.35-0.5 mM IPTG induction). Cell pellets were resuspended in either high or low salt (as for high salt except 25 mM HEPEs pH 7.5, 150 mM NaCl) lysis buffer and purified as above on Ni-NTA agarose (Qiagen) with wash buffer (25 mM HEPEs pH 7.5, 150 mM NaCl, 2% glycerol, 20 mM imidazole, 10 mM βME). Bead slurry was mixed with SDS 2X loading buffer (125 mM Tris pH 6.8, 4% SDS, 20% glycerol, 0.715 M βME, bromophenol blue), boiled, and analyzed by 10 or 12.5% SDS-PAGE, stained with Coomassie blue.

[1] = target: T2, phosphorylated CBL (pCBL); assay: In vitro ubiquitination assay, anti-ubiquitin immunoblot, phosphorylated CBL; format: biochemical; conditions: added to phosphorylated CBL
From the text: Given that binding of SLAP2 and the LHR-RING would be mutually exclusive (FIG. 8C), we reasoned that binding of SLAP2 to CBL could displace the LHR-RING, thereby promoting the catalytically competent conformation. To test this hypothesis, an in vitro ubiquitination assay in which E3 ligase activity is detected by a smear at high molecular weight on an anti-ubiquitin (Ub) immunoblot was employed. […] To further compare and quantify CBL ubiquitin ligase activity, a chemiluminescence based assay which measures the total amount of polyubiquitylated products formed in an in vitro reaction was used. In this assay, production of polyubiquitylated proteins increased upon addition of SLAP2 or pSLAP2 to CBL, compared to CBL alone (FIG. 9C and FIG. 10A).
In vitro ubiquitination reactions were prepared with 20 pmol of CBL or pCBL and 60 pmol of hSLAP2 or phosphorylated hSLAP2 (pSLAP2) for both WT and mutants. Reagents were thawed and reactions prepared on ice. […]

Row | CBL TKBD co-purification (CBL TKBD; high salt conditions (0.5 M NaCl)) | CBL TKBD co-purification (CBL TKBD; conditions where SLAP2 was tyrosine phosphorylated (TKB1), low salt) | Molecule | ubiquitination activity of active pCBL [1]
1 | co-purified | – | Trx-His(6)-Δlinker-hSLAP2 (human SLAP2 29-261) (other, also called Trx-His-SLAP2; SLAP2 WT; not shown: N-terminal thioredoxin (Trx)-His(6)-TEV-site tag and linker of the modified pET32a (Δlinker version)) EAERSKATAVALGSFPAGGPAELSLRLGEPLTIVSEDGDWWTVLSEVSGREYNIPSVHVAKVSHGWLYEGLSREKAEELLLLPGNPGGAFLIRESQTRRGSYSLSVRLSRPASWDRIRHYRIHCLDNGWLYISPRLTFPSLQALVDHYSELADDICCLLKEPCVLQRAGPLPGKDIPLPVTVQRTPLNWKELDSSLLFSEAATGEESLLSEGLRESLSFYISLNDEAVSLDDA | Neither addition of SLAP2 nor pSLAP2 to active pCBL appeared to further enhance or diminish ubiquitination activity
2 | – | co-purified | pSLAP2: tyrosine phosphorylated SLAP2 expressed in TKB1 cells (protein, UniProt Q9H6Q3 2-261, looked up, tyrosine phosphorylated, tyrosine phosphorylated SLAP2 expressed in TKB1 cells) Src-like-adapter 2: GSLPSRRKSLPSPSLSSSVQGQGPVTMEAERSKATAVALGSFPAGGPAELSLRLGEPLTIVSEDGDWWTVLSEVSGREYNIPSVHVAKVSHGWLYEGLSREKAEELLLLPGNPGGAFLIRESQTRRGSYSLSVRLSRPASWDRIRHYRIHCLDNGWLYISPRLTFPSLQALVDHYSELADDICCLLKEPCVLQRAGPLPGKDIPLPVTVQRTPLNWKELDSSLLFSEAATGEESLLSEGLRESLSFYISLNDEAVSLDDA | Neither addition of SLAP2 nor pSLAP2 to active pCBL appeared to further enhance or diminish ubiquitination activity
